Laboratory results as given in patent publication US20160129077A1, “Use of recombinant ganoderma immunoregulatory protein (rLZ-8) in preparation of drug for treating melanoma” (priority 2013, published 2016).
Like-named read-outs stand apart in the source and are kept apart here. Marks after values point to notes of the source that are not given here.

Legend:
[1] = system: human gastric cancer cells (SGC-7901); conditions: cited from earlier work
B16-F10 lung metastases = test: B16-F10 melanoma lung metastasis model (tail vein injection) in Kunming mice; type: in vivo; conditions: for Survival rate when all mice of the negative contrast group were dead: 87th / 95th day after injecting the tumors
Source text: DMEM, fetal bovine serum, PBS, trypsin-EDTA, DMSO, Tris-HCl buffer with pH 7.6 for rinsing, 0.05% trypsin, rLZ-8, and DTIC.
After the mice were put to death, lungs of the dead mice were dissected out and the number of black spots on surfaces of the lungs, formed by an aggregation of metastasis cell, was counted, so as to calculate the inhibition rate of the drug against the growth of the lung metastasis as: inhibition rate=(an average metastasis number of the negative contrast group−an average metastasis number of the drug administrated group)/the average metastasis number of the negative contrast group×100%. A time and the number of the dead mouse in each experiment group were recorded in detail, especially during administrating the drug continuously, until the negative contrast group was completely dead; and then, the survival states of the mice in the experiment groups and the contrast groups were analyzed. A survival rate was calculated according to the number of the dead mice in the other groups when all the mice of the negative contrast group were dead, based on a formula that survival rate=(a total number of the mice−the number of the dead mice)/the total number of the mice.

[2] = system: IFN-γ secreting expression; test: Neutralization activity of anti-rLZ-8 antibody by biological activity method (IFN-γ secreting expression stimulated by rLZ-8); type: cell-based
Procedure: As a fungal recombinant genetic engineering drug, it is crucial to track generation of antibody of the rLZ-8 for a preclinical evaluation. Blood serum of normal monkeys, Macaca fascicularis, after being continuously administrated, was selected for testing antibody of the rLZ-8 by ELISA and for testing a neutralization activity of anti-rLZ-8 antibody by a biological activity method.
On the 9th-11th days of administrating the drug, three monkeys were tested to have low titer (1:5) of the anti-rLZ-8 antibody; after the 28th day of administrating, the titer of the antibody maintained low, within a range of 1:25 to 1:125. No anti-rLZ-8 antibody was tested from the monkeys of the contrast group. […] Therefore, the inhibition effect of the monkey blood serum was not the property of the competitive neutralizing antibody.

[3] = system: human lung carcinoma cells (A549); conditions: cited from earlier work
[4] = Toxicity test of rLZ-8 on SD rats; type: in vivo; parameters: Weight gains, male / Weight gains, female / BUN (blood urea nitrogen) / CHE (cholinesterase) / CRE (creatinine) / TBA (total bile acid) / UA (uric acid) / ALT (alanine aminotransferase) / AST (aspartate aminotransferase): unit not given here; conditions: for Weight gains, female: female SD rats; for Weight gains, female / Weight gains, male: 46 days; for Weight gains, male: male SD rats
Procedure: The administration dosages for the rats were calculated based on the administration dosage for the mice; the rats were divided into a contrast group (physiological saline), a low dosage group (15 μl/kg weight), a medium dosage group (30 μl/kg weight) and a high dosage group (60 μl/kg weight). The administration manner was an intraperitoneal injection.
Feeding amount, weight; serology: liver function and kidney function; immunity: thymus index and spleen index; serum complements IgM, IgG, C3 and C4; pathology examination: heart, liver, spleen, lung, kidney, pancreas, thymus, gonad etc.

B16F10 orthotopic tumor = conditions: for Mortality rate (administration for 28 days) / Mortality rate (administration for 56 days): dead mice/animal number
Procedure: The mice were transplanted with a melanoma cells line B16-F10.
The mice melanoma cells B16-F10 were cultured in the DMEM containing 10% fetal bovine serum, at 37° C. in the CO2 thermostat incubator. 200 μl of B16-F10 cell suspension (containing 1×10^7 cells) was slowly subcutaneously injected into a dorsal-ventral side of the mouse through 1 ml syringe, so as to establish a model of mice transplanted with tumors. […] The rLZ-8 was injected once per day; the DTIC was continuously tail-intravenously injected for 5 days and injected for a second time after 3 weeks. During the experiment, living states of the mice were observed; the mice were weighed once every 7 days; blood samples were taken from tail veins of the mice every 2 weeks; volumes of the tumors, subcutaneously injected into the mice, were measured every 2 days; for each group, the tumors were dissected at an end of the experiment and weighed on the balance, with weights recorded. According to a formula that a tumor growth inhibition rate=(an average weight of the tumors of the physiological saline group−an average weight of the tumors of the drug administrated groups)/the average weight of the tumors of the physiological saline group, the inhibition rate of the rLZ-8 upon the growth of the orthotopic tumor was calculated.

[5] = medium dosage 246 μg/kg, 56 days
[6] = culture medium with anti-rLZ-8 antibody positive (1:125) monkey blood serum diluted 10 times
[7] = high dosage 60 μl/kg weight i.p.
[8] = low dosage 15 μl/kg weight i.p.
[9] = medium dosage 30 μl/kg weight i.p.
[10] = medium dosage 246 μg/kg, 28 days

B1: rLZ-8: recombinant ganoderma immunoregulatory protein (LZ-8), fungal immunoregulatory protein obtained by gene engineering (protein, UniProt P14945 2-111, looked up)
Immunomodulatory protein Ling …: SDTALIFRLAWDVKKLSFDYTPNWGRGNPNNFIDTVTFPKVLTDKAYTYRVAVSGRNLGVKPSYAVESDGSQKVNFLEYNSGYGIADTNTIQVFVVDPDTNNDFIIAQWN
- Killing of cells in vitro [1]: effectively kills
- Survival rate when all mice of the negative contrast group were dead (B16-F10 lung metastases; high dosage 492 μg/kg): 10%
- Tumor metastases inhibition rate (B16-F10 lung metastases; high dosage 492 μg/kg, 28 days): 71.17±2.43%
- Tumor metastases inhibition rate (B16-F10 lung metastases; high dosage 492 μg/kg, 56 days): 89.78 ± 2.77 %
- Survival rate when all mice of the negative contrast group were dead (B16-F10 lung metastases; low dosage 123 μg/kg): 25%
- Tumor metastases inhibition rate (B16-F10 lung metastases; low dosage 123 μg/kg, 28 days): 62.13±1.88%
- Tumor metastases inhibition rate (B16-F10 lung metastases; low dosage 123 μg/kg, 56 days): 66.18 ± 1.79 %
- Survival rate when all mice of the negative contrast group were dead (B16-F10 lung metastases; medium dosage 246 μg/kg): 30%
- Tumor metastases inhibition rate (B16-F10 lung metastases; [5]): 84.31 ± 3.12 %
- Maximum expression value (Emax) of value A [2, 6]: 0.78±0.09
- Slope of the curve [2, 6]: 0.77±0.20
- Generation of neutralizing antibody ([2]; monkeys, continuous administration): does not generate the neutralizing antibody
- Half maximal inhibitory concentration IC50 ([2]; with antibody positive monkey blood serum versus without): increased
- Killing of cells in vitro [3]: effectively kills
- Impact on liver function and kidney function ([4]; SD rats, all dosage groups): no obvious adverse impact on the liver function and the kidney function
- Pathology examination of tested organs ([4]; compared with the organs of the contrast group): no obvious morphological change
- Weight gains, female [4, 7]: 133.37 ± 15.29
- Weight gains, female [4, 8]: 140.00 ± 23.48
- Weight gains, female [4, 9]: 124.08 ± 14.17
- ALB (albumin) [4, 7]: 34.77 ± 1.44
- ALP (alkaline phosphatase) [4, 7]: 218.50 ± 69.98
- ALT (alanine aminotransferase) [4, 7]: 30.75 ± 2.42
- AST (aspartate aminotransferase) [4, 7]: 128.58 ± 18.74
- BUN (blood urea nitrogen) [4, 7]: 7.24 ± 0.89
- C3 [4, 7]: 0.428 ± 0.082 g/L
- C4 [4, 7]: 0.352 ± 0.016 g/L
- CHE (cholinesterase) [4, 7]: 456.17 ± 309.59
- CRE (creatinine) [4, 7]: 24.22 ± 2.55
- IgG [4, 7]: 0.124 ± 0.081 g/L
- IgM [4, 7]: 0.236 ± 0.076 g/L
- Spleen index (spleen weight/weight × 100) [4, 7]: 0.19 ± 0.02
- TBA (total bile acid) [4, 7]: 37.30 ± 17.63
- TP (total protein) [4, 7]: 63.23 ± 2.88
- Thymus index (thymus weight/weight × 100) [4, 7]: 0.17 ± 0.03
- UA (uric acid) [4, 7]: 164.50 ± 28.94
- ALB (albumin) [4, 8]: 37.54 ± 1.62
- ALP (alkaline phosphatase) [4, 8]: 243.50 ± 103.54
- ALT (alanine aminotransferase) [4, 8]: 35.50 ± 4.93
- AST (aspartate aminotransferase) [4, 8]: 175.00 ± 34.96
- BUN (blood urea nitrogen) [4, 8]: 7.54 ± 0.47
- C3 [4, 8]: 0.449 ± 0.097 g/L
- C4 [4, 8]: 0.397 ± 0.021 g/L
- CHE (cholinesterase) [4, 8]: 474.17 ± 305.10
- CRE (creatinine) [4, 8]: 24.97 ± 1.89
- IgG [4, 8]: 0.146 ± 0.021 g/L
- IgM [4, 8]: 0.220 ± 0.080 g/L
- Spleen index (spleen weight/weight × 100) [4, 8]: 0.19 ± 0.03
- TBA (total bile acid) [4, 8]: 30.13 ± 16.29
- TP (total protein) [4, 8]: 67.58 ± 3.34
- Thymus index (thymus weight/weight × 100) [4, 8]: 0.15 ± 0.03
- UA (uric acid) [4, 8]: 174.42 ± 46.65
- Weight gains, male [4, 7]: 221.92 ± 21.84
- Weight gains, male [4, 8]: 215.25 ± 17.82
- Weight gains, male [4, 9]: 218.67 ± 10.89
- ALB (albumin) [4, 9]: 36.57 ± 2.20
- ALP (alkaline phosphatase) [4, 9]: 242.83 ± 80.94
- ALT (alanine aminotransferase) [4, 9]: 34.42 ± 4.50
- AST (aspartate aminotransferase) [4, 9]: 169.08 ± 30.83
- BUN (blood urea nitrogen) [4, 9]: 7.36 ± 0.97
- C3 [4, 9]: 0.457 ± 0.088 g/L
- C4 [4, 9]: 0.412 ± 0.017 g/L
- CHE (cholinesterase) [4, 9]: 487.17 ± 303.02
- CRE (creatinine) [4, 9]: 24.26 ± 3.55
- IgG [4, 9]: 0.121 ± 0.021 g/L
- IgM [4, 9]: 0.228 ± 0.084 g/L
- Spleen index (spleen weight/weight × 100) [4, 9]: 0.18 ± 0.02
- TBA (total bile acid) [4, 9]: 38.25 ± 18.15
- TP (total protein) [4, 9]: 66.58 ± 4.77
- Thymus index (thymus weight/weight × 100) [4, 9]: 0.12 ± 0.02
- UA (uric acid) [4, 9]: 186.83 ± 45.67
- Increase of tumor inhibition rate between administration for 28 days and for 56 days (B16F10 orthotopic tumor; each rLZ-8 dosage group): around 15%
- Tumor weight (B16F10 orthotopic tumor; high dosage 492 μg/kg tail i.v. once per day, 28 days): 0.14 ± 0.04 g
- Tumor growth inhibition rate (B16F10 orthotopic tumor; high dosage 492 μg/kg, 28 days): 88.49 ± 0.51 %
- Tumor volume (B16F10 orthotopic tumor; high dosage 492 μg/kg, 28 days): 0.11 ± 0.03** mm^3
- Tumor growth inhibition rate (B16F10 orthotopic tumor; high dosage 492 μg/kg, 56 days): 95.66±1.77%
- Tumor volume (B16F10 orthotopic tumor; high dosage 492 μg/kg, 56 days): 0.13 ± 0.09**^## mm^3
- Tumor weight (B16F10 orthotopic tumor; high dosage 492 μg/kg, 56 days): 0.15 ± 0.07 g
- Mortality rate (administration for 28 days) (B16F10 orthotopic tumor; high dosage 492 μg/kg): 0/10
- Mortality rate (administration for 56 days) (B16F10 orthotopic tumor; high dosage 492 μg/kg): 0/10
- Tumor weight (B16F10 orthotopic tumor; low dosage 123 μg/kg tail i.v. once per day, 28 days): 0.6 ± 0.21 g
- Tumor growth inhibition rate (B16F10 orthotopic tumor; low dosage 123 μg/kg, 28 days): 51.81 ± 0.41 %
- Tumor volume (B16F10 orthotopic tumor; low dosage 123 μg/kg, 28 days): 0.5 ± 0.14**^## mm^3
- Tumor growth inhibition rate (B16F10 orthotopic tumor; low dosage 123 μg/kg, 56 days): 76.76 ± 0.53 %
- Tumor volume (B16F10 orthotopic tumor; low dosage 123 μg/kg, 56 days): 0.65 ± 0.24**^# mm^3
- Tumor weight (B16F10 orthotopic tumor; low dosage 123 μg/kg, 56 days): 0.79 ± 0.31**^ g
- Mortality rate (administration for 28 days) (B16F10 orthotopic tumor; low dosage 123 μg/kg): 0/10
- Mortality rate (administration for 56 days) (B16F10 orthotopic tumor; low dosage 123 μg/kg): 0/10
- Tumor weight (B16F10 orthotopic tumor; medium dosage 246 μg/kg tail i.v. once per day, 28 days): 0.43 ± 0.17 g
- Tumor growth inhibition rate (B16F10 orthotopic tumor; [10]): 65.00 ± 0.77 %
- Tumor volume (B16F10 orthotopic tumor; [10]): 0.36 ± 0.14**^## mm^3
- Tumor growth inhibition rate (B16F10 orthotopic tumor; [5]): 80.10 ± 1.01 %
- Tumor volume (B16F10 orthotopic tumor; [5]): 0.56 ± 0.18**^## mm^3
- Tumor weight (B16F10 orthotopic tumor; [5]): 0.68 ± 0.19 g
- Mortality rate (administration for 28 days) (B16F10 orthotopic tumor; medium dosage 246 μg/kg): 0/10
- Mortality rate (administration for 56 days) (B16F10 orthotopic tumor; medium dosage 246 μg/kg): 0/10
- Body leukocyte number (B16F10 orthotopic tumor; tumor-bearing mice, tail vein blood, anti-tumor treatment experiment (28/56 days)): small impact on the body leukocyte number
